Experiment [1] has as its target T1, OX40 on HT1080 OX40 stable cell line (Homo sapiens (Human), UniProt P43489 29-277).
T1 sequence: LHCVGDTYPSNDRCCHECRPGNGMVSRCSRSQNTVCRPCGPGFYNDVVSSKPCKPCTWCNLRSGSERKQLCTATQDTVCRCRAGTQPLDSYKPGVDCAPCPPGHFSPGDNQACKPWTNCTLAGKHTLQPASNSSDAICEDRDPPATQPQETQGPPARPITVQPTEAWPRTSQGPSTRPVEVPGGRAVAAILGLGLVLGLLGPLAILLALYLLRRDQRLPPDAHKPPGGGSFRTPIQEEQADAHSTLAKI
Kind of experiment: cell-based or functional assay.

Experiment [2] addresses T2, human OX40 (NP_003318) (human, UniProt P43489 29-214, limits assumed).
T2 construct: also called HuOX40; CD134
T2 sequence: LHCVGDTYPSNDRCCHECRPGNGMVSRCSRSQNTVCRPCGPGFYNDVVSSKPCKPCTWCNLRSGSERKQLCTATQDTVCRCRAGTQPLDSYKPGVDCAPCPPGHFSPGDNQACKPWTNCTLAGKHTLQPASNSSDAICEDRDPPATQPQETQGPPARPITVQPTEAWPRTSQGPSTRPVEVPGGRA
Kind of experiment: ELISA, binding to human OX40.

In experiment [3] the target is T1, OX40 on HT1080 OX40 stable cell line. Kind of experiment: cell-based or functional assay. The source holds these as a separate data set.
The target in experiment [4] is T3, OX40-his (Homo sapiens (Human), UniProt P43489 29-214, limits assumed).
T3 construct: Analyte of the Biacore 8K assay; also called Ag OX40-his; Antigen OX40-his; not shown: His tag
T3 sequence: T2 sequence
The experiment is described as follows: SPR Biacore (summary table; repeats Table 6). How it is done:
(§1) The affinities of purified antibody binding to OX40-his was determined using a Surface Plasmon Resonance (SPR) biosensor, Biacore 8k. Antibodies were immobilized on the sensor chip through capture method. Antigen OX40-his was used as the analyte. The data of dissociation (kd) and association (ka) rate constants were obtained using Biacore 8k evaluation software. The equilibrium dissociation constants (KD) were calculated from the ratio of kd over ka.
In general terms: SPR reads the build-up and loss of mass on a sensor chip optically.

In experiment [5] the target is T3, OX40-his. Kind of experiment: SPR Biacore 8K, antibody captured, OX40-his as analyte. On the procedure:
as §1

The target in experiment [6] is T1, OX40 on HT1080 OX40 stable cell line. The experiment is described as follows: cell-based or functional assay. This is another data set of the same source.
Experiment [7] has the same target. The experiment is described as follows: cell-based or functional assay. This is another data set of the same source.
Another experiment deals with T4, murine OX40 (murine, UniProt P47741 20-211, limits assumed).
T4 construct: also called MuOX40; mouse OX40
T4 sequence (looked up): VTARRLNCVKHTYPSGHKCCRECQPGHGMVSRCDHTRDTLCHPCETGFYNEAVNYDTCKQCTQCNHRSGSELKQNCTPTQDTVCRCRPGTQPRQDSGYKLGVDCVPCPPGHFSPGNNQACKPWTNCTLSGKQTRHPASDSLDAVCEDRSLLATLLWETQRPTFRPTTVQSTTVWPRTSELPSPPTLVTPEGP
The experiment is described as follows: ELISA, murine OX40 binding. For orientation: An ELISA detects its analyte on a solid surface through an enzyme-linked reagent.

A further experiment deals with T5, cyno OX40 (cyno).
T5 construct: also called CyOX40
The experiment is described as follows: ELISA, binding to cyno OX40.

The target of experiment [8] is T2, human OX40 (NP_003318). Kind of experiment: ELISA, binding to human OX40. The source holds these as a separate data set.
The target in experiment [9] is T2, human OX40 (NP_003318). The experiment is described as follows: OX40L/OX40 blocking ELISA, purified proteins.
In experiment [10] the target is T2, human OX40 (NP_003318). The experiment is described as follows: OX40L/OX40 blocking ELISA, purified proteins; OX40L/OX40 ELISA blocking, purified proteins.
Experiment [11] addresses T2, human OX40 (NP_003318). Kind of experiment: ELISA, binding to human OX40 (summary table; repeats Table 3).

Changes are numbered by the printed parent chain. “And” between values parts separate entries of the source, which are not always exact repeats. Identical values can stand only once.

B1: humanized Ab REMD 277.1 (VH2-1/VL2-1) (antibody, human IgG1, kappa, V domains shown)
VH: EVQLVQSGAEVKKPGESLKISCKGSGYTFTSYVMHWVRQMPGKGLEWMGYINPYNDGTKYNEKFKGQVTISADKSISTAYLQWSSLKASDTAMYYCARYYGSNYAMDYWGQGTMVTVSS
VL: EIVLTQSPATLSLSPGERATLSCRASQDIRNYLNWYQQKPGQAPRLLIYYTSRLHSGIPARFSGSGSGTDFTLTISSLEPEDFAVYYCQQGNTLPWTFGQGTKVEIKR
A word on the EC50: it is the concentration at which the effect is half-maximal. A word on the Kd: it is the concentration at which binding is half-saturated. High values mean a looser complex, low ones a tighter complex. For orientation: koff means a measure of how fast the partners let go of each other. High values mean a short-lived complex, low ones a long-lived complex. Broadly, the kon is the rate constant with which the complex forms. Higher therefore signals fast association. Take B1: in experiment [1], the “HT1080 + OX40L Antagonist Assay IC50” value turned out to be 1.53 NM. The EC50 in the experiment with human OX40 (NP_003318) [2] is 960 pM. In [3], the “EC50 (read off the curve), IL-8 secretion, OX40L-free Ab agonist assay” value was about 1000 pM. The molecule further came in with a Kd in the experiment with OX40-his [4] of 13800 pM. In the experiment with OX40-his [5], this molecule had an equilibrium dissociation constant (Kd) of 13800 pM, an off-rate (koff) of 0.000848 s⁻¹ and a kon of 61400 M⁻¹ s⁻¹.

B2: humanized Ab REMD 277.2 (VH2-1/VL5BM) (antibody, human IgG1, kappa, V domains shown)
VH: B1 VH
VL: DIQMTQSPSSLSASVGDRVTISCRASQDIRNYLNWYQQKPGKTVKLLIYYTSRLHSGVPSRFSGSGSGTDYTFTISSLQPEDIATYFCQQGNTLPWTFGGGTKLEIKR
Regarding B2, in experiment [1], the “HT1080 + OX40L Antagonist Assay IC50” value turned out to be 3.52 NM. The half-maximal effective concentration (EC50) in the experiment with human OX40 (NP_003318) [2] came out at 3100 pM. This molecule also registered a dissociation constant (Kd) with OX40-his [4] of 5940 pM. In the experiment with OX40-his [5], this molecule returned a Kd of 5940 pM, a koff of 0.000119 s⁻¹ and a kon of 20000 M⁻¹ s⁻¹.

B3: humanized Ab REMD 277 (VH2-1/VL2-2) (antibody, human IgG1, kappa, V domains shown)
VH: B1 VH
VL: B1 VL with L4M, L13A, A19V, Q42G, P44V, I58V, F71Y, F83Y, Y87F
Consider B3, for which the “cell-based functional assay in the absence of OX40L, EC50” value in experiment [6] amounted to 1560 pM. For the same molecule, the “HT1080 + OX40L Antagonist Assay IC50” value in [1] came to 0.479 NM. Besides, in the experiment with human OX40 (NP_003318) [2], a half-maximal effect (EC50) was put at 600 pM. The molecule further came in with a dissociation constant (Kd) with OX40-his [4] of 6300 pM. In the experiment with OX40-his [5], this molecule yielded a Kd of 6300 pM, a koff of 0.000178 s⁻¹ and a kon of 28200 M⁻¹ s⁻¹.

B4: murine antibody A4 (13C2G10F10) (antibody, V domains shown)
VH: EVQLQQSGPELVKPGASVKMSCKASGYTFTSYIMHWVKQKPGQGLEWIGYINPYNDGTKYNEKFKGKATLTSDKSSSTAYMELSSLTSEDSAVYYCANYYGSSYTMDYWGQGTSVTVSS
VL: DIQMTQTTSSLSASLGDRVTISCRASQDIRNYLNWYQQKPDGSVKLLIYYTSRLHSGVPSRFSGSGSGTDYSLTISNLEQEDIATYFCQQGNTLPWTFGGGTKLEIK
notes: also called MAb A4; H4/L4
The IC50 is the concentration that gives 50% inhibition. A high value points to a need for much substance. For the molecule B4, in experiment [7], the “HT1080 + OX4OL/IL-8 Antagonist Assay IC50” value turned out to be 1350 pM, the “HT1080 Agonist Assay EC50 (IL-8 secretion)” value (shortened to “HT1080 Agonist Assay EC50”) is 8080 pM and the “HT1080 Agonist Assay nBMAX” value is 1.52. In the experiment with murine OX40, the binding result is on record as “no binding”. Further, the midpoint of the response in the experiment with cyno OX40, the EC50, lay at 30.5 pM. Besides, the concentration giving a half-maximal response (EC50) in the experiment with human OX40 (NP_003318) [8] is 15.7 pM and 15.1 pM. The molecule also had an IC50 with human OX40 (NP_003318) [9] of 68.3 pM.

B5: murine-human chimeric antibody derived from murine antibody A6 (chimeric IgG) (antibody, V domains shown)
VH: B4 VH with I33V, S103N, T105A
VL: B2 VL with S7T, P8T, V15L, G41D, K42G, T72S, F73L, S77N, Q79E, P80Q
notes: also called chimeric OX40 Ab
As to B5, the “HT1080 + OX40L Antagonist Assay IC50” value in [1] turned out to be 109 NM. The molecule also registered an EC50 with human OX40 (NP_003318) [2] of 28 pM. This molecule came in with a Kd with OX40-his [4] of 9180 pM. Further, in the experiment with OX40-his [5], binding was characterised by a dissociation constant (Kd) of 9180 pM, the koff turned out to be 0.000865 s⁻¹ and the kon stood at 94200 M⁻¹ s⁻¹.

B6: murine antibody A5 (40H11C2F5) (antibody, V domains shown)
VH: EVQLQQSGPELVKPGASVKISCKASGYTFTENYMNWVKQSHGKSLEWIGDINRNNGGTRYNQKFKGKATLTVDKSSSTDYMELRSLTSEDSAVYYCGGTVVGYFDVWGTGTTVTVSS
VL: B4 VL with T7I, T8I, S9T, A25S, R30S, S43T, H55K
notes: also called MAb A5; H5/L5
As for B6, in [7], the “HT1080 Agonist Assay EC50” value turned out to be 2800 pM. Besides, in [7], the “HT1080 Agonist Assay nBMAX” value came to 3.2. In addition, the binding result with murine OX40 is “no binding”. For the same molecule, the EC50 in the experiment with cyno OX40 was 14.3 pM; in the experiment with human OX40 (NP_003318) [8] it was 8.1 pM and 7.9 pM. The molecule further gave an IC50 in the experiment with human OX40 (NP_003318) [9] of 38.2 pM.

B7: murine antibody A3 (14F2C2D7) (antibody, V domains shown)
VH: QVQLKESGPGLVAPSQSLSITCTVSGFSLSSYGVHWVRQPPGKGLEWLGVIWAGGSTDYNSALMSRLSISKDNSKSQVVLKMNSLQTDDTAMYYCAREEVWDWGQGTLVTVSA
VL: B4 VL with R30S, S43T, H55Q, W96L, G100A, I106L
notes: also called MAb A3; H3/L3
In the case of B7, in experiment [7], the “HT1080 Agonist Assay EC50” value worked out at 6740 pM and the “HT1080 Agonist Assay nBMAX” value stood at 4.49. Moreover, the binding result with murine OX40 was “no binding”. In addition, the response with cyno OX40 was half-maximal at 17.1 pM (EC50). Moreover, the concentration giving a half-maximal response (EC50) with human OX40 (NP_003318) [8] is 12.8 pM and 13.6 pM. The molecule also registered a half-inhibitory concentration (IC50) with human OX40 (NP_003318) [10] of 29.3 pM.

B8: murine antibody A6 (2G2E2D8) (antibody, V domains shown)
VH: B4 VH with I33V, S103N, T105A
VL: B4 VL with S43T
notes: also called MAb A6; Murine A6
With B8, the “HT1080 Agonist Assay EC50” value in experiment [7] is 1560 pM. The “HT1080 Agonist Assay nBMAX” value in [7] was determined as 4.54. The “HT1080 + OX40L Antagonist Assay IC50” value in [1] was found to be 1.34 NM. Further, the binding result with murine OX40 is given as “no binding”. For the same molecule, the EC50 with cyno OX40 is 44.6 pM; with human OX40 (NP_003318) [8], 27.5 pM and 27.2 pM; in the experiment with human OX40 (NP_003318) [11] it was 27.5 pM.

(Values after patent US20210024640A1 (REMD BIOTHERAPEUTICS, published 2021).)
